These results are taken from the supplement of paper PMC6379048.

What all share (assay): EC50 of free RNA motif oligo competing protein binding to immobilised probe
For one series, the target named is P4HA2 (UniProt O15460). The essentials:
(§1)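 Over three biological replicates and two independent experiments, proteins captured on NHS-Sepharose beads carrying 5′-amino-C6 RNA oligos were quantified by label-free LC-MS/MS and normalised to the control. Capture lasted 30 min at 4°C and followed a 1 h pre-incubation at 4°C of HEK293-FT lysate (2.5 mg protein/well) with the same oligos in free form (0 nM to 30 μM). EC50 was taken from a four-parameter log-logistic fit, and Kd was EC50 corrected by a protein-dependent depletion factor.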

The target of the next series is T1, PUF60 (UniProt Q9UHX1).
T1 sequence: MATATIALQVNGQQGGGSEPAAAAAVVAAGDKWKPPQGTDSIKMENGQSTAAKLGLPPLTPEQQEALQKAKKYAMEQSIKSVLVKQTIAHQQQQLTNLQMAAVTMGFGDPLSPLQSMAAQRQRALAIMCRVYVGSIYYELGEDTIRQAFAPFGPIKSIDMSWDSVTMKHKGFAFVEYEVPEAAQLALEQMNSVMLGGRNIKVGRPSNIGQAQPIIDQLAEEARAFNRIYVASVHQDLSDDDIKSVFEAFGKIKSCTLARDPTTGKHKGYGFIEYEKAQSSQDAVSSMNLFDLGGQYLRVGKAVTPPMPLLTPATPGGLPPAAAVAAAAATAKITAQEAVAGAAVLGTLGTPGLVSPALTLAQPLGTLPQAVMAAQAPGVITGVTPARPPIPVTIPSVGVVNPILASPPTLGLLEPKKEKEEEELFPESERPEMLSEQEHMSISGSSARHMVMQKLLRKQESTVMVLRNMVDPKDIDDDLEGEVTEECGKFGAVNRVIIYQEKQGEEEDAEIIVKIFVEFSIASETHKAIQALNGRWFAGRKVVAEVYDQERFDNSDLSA
The essentials: as §1

Another series concerns the target T2, HNRNPR (UniProt O43390).
T2 sequence: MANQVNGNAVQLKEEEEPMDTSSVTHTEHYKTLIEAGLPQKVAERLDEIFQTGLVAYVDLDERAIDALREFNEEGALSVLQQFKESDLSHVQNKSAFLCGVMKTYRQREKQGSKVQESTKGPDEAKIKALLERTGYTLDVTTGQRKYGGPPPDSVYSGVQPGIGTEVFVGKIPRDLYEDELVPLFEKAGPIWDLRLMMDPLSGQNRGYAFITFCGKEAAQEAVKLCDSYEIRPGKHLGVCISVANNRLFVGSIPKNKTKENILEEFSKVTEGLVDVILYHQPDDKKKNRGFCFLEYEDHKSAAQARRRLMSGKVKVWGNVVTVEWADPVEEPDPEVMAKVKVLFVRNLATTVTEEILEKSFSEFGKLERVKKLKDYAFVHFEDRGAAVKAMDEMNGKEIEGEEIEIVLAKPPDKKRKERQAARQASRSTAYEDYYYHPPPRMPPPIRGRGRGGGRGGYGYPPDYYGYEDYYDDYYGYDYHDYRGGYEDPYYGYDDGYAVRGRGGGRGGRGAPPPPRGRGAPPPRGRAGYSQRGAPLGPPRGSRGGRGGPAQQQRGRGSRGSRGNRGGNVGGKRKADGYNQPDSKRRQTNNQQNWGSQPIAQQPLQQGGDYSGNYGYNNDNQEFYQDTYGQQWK
The procedure, abridged:
as §1

The next series deals with RPS3 (UniProt P23396). The procedure, abridged:
as §1

In a further series the target is T3, TRIM56 (UniProt Q9BRZ2).
T3 sequence: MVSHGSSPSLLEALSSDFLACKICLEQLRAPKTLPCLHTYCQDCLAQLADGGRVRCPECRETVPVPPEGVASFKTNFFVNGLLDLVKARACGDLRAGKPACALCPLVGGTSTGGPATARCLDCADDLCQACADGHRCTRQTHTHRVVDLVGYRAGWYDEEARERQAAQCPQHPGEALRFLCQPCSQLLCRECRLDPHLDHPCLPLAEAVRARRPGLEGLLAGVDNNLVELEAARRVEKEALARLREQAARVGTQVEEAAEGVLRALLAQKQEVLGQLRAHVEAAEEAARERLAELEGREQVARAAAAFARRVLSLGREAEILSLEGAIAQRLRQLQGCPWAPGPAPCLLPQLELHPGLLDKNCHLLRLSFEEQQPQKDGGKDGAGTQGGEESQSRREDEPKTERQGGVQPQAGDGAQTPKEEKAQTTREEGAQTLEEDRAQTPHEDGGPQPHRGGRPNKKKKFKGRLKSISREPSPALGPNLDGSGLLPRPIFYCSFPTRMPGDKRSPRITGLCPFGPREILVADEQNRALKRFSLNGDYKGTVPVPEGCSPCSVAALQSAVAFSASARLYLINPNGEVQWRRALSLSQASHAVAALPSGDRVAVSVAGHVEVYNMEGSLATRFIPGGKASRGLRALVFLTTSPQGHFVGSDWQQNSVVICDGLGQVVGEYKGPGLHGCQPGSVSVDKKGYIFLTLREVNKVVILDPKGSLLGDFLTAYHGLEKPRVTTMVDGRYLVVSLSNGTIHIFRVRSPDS
The essentials: as §1

For a further series, the target named is ATIC (UniProt P31939). The essentials: as §1
A further series addresses ZCCHC11 (UniProt Q5TAX3). The essentials: as §1
The target in another series is HNRNPA2B1 (UniProt P22626). The procedure, abridged: as §1
Sequence of HNRNPA2B1 (P22626 whole entry): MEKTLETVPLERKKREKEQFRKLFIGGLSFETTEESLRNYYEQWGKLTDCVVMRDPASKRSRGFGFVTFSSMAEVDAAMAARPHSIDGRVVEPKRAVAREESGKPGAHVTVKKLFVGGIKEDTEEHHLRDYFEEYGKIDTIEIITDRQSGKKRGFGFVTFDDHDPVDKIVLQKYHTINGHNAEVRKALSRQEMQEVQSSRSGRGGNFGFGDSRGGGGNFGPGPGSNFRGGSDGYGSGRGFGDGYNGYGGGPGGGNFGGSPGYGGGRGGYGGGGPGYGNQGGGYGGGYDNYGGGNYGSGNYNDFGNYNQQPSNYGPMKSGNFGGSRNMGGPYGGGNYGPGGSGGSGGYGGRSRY

Sequence of P4HA2 (O15460 whole entry): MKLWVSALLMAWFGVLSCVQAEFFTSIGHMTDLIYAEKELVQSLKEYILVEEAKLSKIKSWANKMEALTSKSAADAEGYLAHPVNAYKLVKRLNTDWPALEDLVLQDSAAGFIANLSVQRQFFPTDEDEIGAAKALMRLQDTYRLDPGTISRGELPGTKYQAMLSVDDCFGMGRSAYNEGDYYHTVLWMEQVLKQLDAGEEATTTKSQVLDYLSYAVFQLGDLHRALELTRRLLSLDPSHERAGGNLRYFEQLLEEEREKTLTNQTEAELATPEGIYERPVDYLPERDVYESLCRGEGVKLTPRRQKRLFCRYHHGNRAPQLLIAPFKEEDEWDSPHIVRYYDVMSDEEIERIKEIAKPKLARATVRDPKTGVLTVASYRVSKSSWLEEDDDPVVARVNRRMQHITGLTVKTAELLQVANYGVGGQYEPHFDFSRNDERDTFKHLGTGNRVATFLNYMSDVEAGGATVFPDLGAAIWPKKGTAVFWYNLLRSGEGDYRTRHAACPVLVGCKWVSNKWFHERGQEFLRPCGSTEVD
Sequence of ATIC (P31939 whole entry, looked up): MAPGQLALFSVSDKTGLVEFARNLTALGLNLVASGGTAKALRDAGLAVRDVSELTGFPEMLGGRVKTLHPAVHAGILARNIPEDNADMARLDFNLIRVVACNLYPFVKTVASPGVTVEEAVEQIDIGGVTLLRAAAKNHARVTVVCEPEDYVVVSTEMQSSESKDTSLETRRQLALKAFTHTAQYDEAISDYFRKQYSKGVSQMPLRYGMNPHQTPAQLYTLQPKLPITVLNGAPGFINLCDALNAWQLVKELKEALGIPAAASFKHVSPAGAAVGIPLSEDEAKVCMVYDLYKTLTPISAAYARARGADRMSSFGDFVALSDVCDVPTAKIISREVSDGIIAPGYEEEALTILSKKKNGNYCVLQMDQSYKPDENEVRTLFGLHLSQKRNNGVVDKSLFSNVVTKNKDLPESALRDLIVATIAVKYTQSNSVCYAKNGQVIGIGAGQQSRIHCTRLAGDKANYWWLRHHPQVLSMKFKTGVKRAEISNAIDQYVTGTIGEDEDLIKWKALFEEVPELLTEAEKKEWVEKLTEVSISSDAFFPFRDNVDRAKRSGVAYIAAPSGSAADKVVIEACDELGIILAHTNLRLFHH
Sequence of ZCCHC11 (Q5TAX3 whole entry): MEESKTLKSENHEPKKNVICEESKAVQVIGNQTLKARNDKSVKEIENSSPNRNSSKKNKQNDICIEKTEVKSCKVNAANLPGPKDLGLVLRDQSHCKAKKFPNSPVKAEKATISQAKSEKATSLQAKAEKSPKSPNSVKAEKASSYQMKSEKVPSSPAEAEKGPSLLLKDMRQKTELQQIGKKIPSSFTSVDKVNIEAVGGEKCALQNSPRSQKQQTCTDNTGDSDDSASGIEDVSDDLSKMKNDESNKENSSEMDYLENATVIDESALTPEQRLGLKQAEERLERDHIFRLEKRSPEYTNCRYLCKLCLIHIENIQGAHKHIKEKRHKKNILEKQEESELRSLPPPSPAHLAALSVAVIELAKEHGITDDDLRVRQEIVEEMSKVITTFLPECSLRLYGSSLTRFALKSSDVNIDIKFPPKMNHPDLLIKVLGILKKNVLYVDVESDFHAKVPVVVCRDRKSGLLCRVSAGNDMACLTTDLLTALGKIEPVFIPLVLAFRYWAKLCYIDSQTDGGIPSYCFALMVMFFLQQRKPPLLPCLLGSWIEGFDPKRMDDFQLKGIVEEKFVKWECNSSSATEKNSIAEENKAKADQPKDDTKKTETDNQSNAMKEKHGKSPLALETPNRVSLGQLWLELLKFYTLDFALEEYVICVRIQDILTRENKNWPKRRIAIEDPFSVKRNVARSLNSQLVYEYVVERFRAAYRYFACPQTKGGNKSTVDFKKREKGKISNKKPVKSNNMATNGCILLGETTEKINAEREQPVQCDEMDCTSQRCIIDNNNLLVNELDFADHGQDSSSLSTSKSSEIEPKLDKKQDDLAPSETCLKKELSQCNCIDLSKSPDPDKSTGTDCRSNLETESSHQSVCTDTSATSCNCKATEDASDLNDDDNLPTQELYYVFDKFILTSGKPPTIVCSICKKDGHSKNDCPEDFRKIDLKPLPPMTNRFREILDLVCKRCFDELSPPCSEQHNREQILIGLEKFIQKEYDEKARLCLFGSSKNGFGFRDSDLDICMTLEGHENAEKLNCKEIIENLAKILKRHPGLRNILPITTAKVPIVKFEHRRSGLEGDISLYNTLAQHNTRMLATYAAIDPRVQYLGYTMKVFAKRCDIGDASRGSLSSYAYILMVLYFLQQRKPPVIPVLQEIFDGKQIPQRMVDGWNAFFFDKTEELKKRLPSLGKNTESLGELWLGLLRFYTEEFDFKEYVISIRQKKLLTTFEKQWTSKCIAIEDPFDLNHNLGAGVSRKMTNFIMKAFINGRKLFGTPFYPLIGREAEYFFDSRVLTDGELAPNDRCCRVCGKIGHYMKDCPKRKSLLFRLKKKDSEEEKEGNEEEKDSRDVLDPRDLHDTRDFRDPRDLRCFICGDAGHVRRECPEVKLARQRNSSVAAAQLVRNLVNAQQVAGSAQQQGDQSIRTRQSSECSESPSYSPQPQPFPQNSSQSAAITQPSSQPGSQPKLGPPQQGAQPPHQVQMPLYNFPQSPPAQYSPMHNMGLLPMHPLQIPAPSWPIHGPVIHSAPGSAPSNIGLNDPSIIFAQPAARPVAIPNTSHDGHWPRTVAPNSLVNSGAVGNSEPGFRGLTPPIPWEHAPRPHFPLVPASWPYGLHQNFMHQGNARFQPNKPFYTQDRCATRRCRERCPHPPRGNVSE

As usually defined, the EC50 is the midpoint of the concentration-response curve. Take AAUAAA: the EC50 in the series with P4HA2 was found to be 38.9 nM; in the series with PUF60 it was 899 nM; with HNRNPR, 2840 nM.
Take CUGUCCU: the EC50 in the series with RPS3 worked out at 307 nM.
With UAUUUAU, the EC50 turned out to be 3450 nM with TRIM56, 804 nM with ATIC, 108 nM in the series with ZCCHC11 and 7320 nM in the series with HNRNPA2B1.
